Experimental data from patent US20240270821A1, “GIP/GLP1/GCG TRI-RECEPTOR AGONISTS AND USES THEREOF” (priority 2023, published 2024).
Changes are numbered by the printed parent chain. Starred links: 1 amine or outer side, 2 acyl side, 3 side chain; linkers in the order of their positions; H or OH if unused. Non-standard residues stand in square brackets, D forms with d. Groups on a side chain read outwards from the residue. No end group written: not given here. *: point of attachment. C18 diacid = O=C(O)CCCCCCCCCCCCCCCCC(=O)*; γGlu = O=C(O)[C@H](CCC(=O)[*:2])N[*:1]; αMeL = CC(C)C[C@](C)(N)C(=O)O; Dab = NCC[C@H](N)C(=O)O; AEEA = NCCOCCOCC(=O)O; Aib = CC(C)(N)C(=O)O

T1: human GIP receptor (human) (UniProt P48546)
T1 sequence (looked up): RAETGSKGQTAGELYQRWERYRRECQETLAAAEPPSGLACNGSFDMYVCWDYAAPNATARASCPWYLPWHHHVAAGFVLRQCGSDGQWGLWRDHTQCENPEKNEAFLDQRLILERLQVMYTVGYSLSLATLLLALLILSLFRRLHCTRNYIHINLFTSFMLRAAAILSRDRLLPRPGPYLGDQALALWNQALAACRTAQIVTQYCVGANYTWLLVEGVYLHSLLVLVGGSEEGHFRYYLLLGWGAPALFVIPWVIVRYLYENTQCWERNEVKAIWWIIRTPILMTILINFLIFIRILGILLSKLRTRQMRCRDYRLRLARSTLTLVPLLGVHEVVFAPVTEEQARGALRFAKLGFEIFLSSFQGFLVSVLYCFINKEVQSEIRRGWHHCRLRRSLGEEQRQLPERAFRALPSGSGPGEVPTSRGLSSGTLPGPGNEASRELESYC

B1: Example 123 (peptide)
chain: YXQGTFTSDFSXXLDKKAQXAFIEWLLEGGESSGEPPPSGE
modifications: synthetic construct; SITE 2: note = 2-Aminoisobutyric Acid; SITE 12: note = L-ornithine; SITE 13: note = alpha-methyl-leucine; SITE 17: note = Lysine is chemically modified through conjugation of the epsilon-amino group of the Lysine side chain with (2-[2-(2-Amino-ethoxy)-ethoxy]-acetyl)-(gamma-Glu)
B2: Example 124 (peptide)
chain: B1 chain with E31H
modifications: synthetic construct; SITE 2: note = 2-Aminoisobutyric Acid; SITE 12: note = L-ornithine; SITE 13: note = alpha-methyl-leucine; SITE 17: note = Lysine is chemically modified through conjugation of the epsilon-amino group of the Lysine side chain with (2-[2-(2-Amino-ethoxy)-ethoxy]-acetyl)-(gamma-Glu)
B3: Example 128 (peptide)
chain: B1 chain with W25Y, G29A, E31P, E35A
modifications: synthetic construct; SITE 2: note = 2-Aminoisobutyric Acid; SITE 12: note = L-ornithine; SITE 13: note = alpha-methyl-leucine; SITE 17: note = Lysine is chemically modified through conjugation of the epsilon-amino group of the Lysine side chain with (2-[2-(2-Amino-ethoxy)-ethoxy]-acetyl)2-(gamma-Glu)
B4: Example 1213 (peptide)
chain: YXQGTXTSDXXIXLDXXAQXEFIEXLIEGGPSSGAPPPSGGGE
modifications: synthetic construct; SITE 2: note = 2-Aminoisobutyric Acid; SITE 6: note = alpha-methyl-2-fluoro-L-phenylalanine; SITE 10: note = 3-(4-Pyridyl)-L-alanine; SITE 11: note = alpha-methyl-L-serine; SITE 13: note = alpha-methyl-leucine; SITE 16: note = L-ornithine; SITE 17: note = Ornithine is chemically
B5: Example 1234 (peptide)
chain: B4 chain with X17Q
modifications: not fully specified; no fatty acid conjugated; synthetic construct; SITE 2: note = 2-Aminoisobutyric Acid; SITE 6: note = alpha-methyl-2-fluoro-L-phenylalanine; SITE 10: note = …; SITE 11: note = alpha-methyl-L-serine; SITE 13: note = alpha-methyl-leucine; SITE 16: note = L-ornithine; SITE 20: note = 3-(4-Pyridyl)-L-alanine
B6: Example 47 (peptide)
chain: YXQGTFTSDFSKXLDKKAQXAFIEYLLEGAPSSGAPPPSEG
modifications: synthetic construct; SITE 2: note = 2-Aminoisobutyric Acid; SITE 13: note = alpha-methyl-leucine; SITE 17: note = Lysine is chemically modified through conjugation of the epsilon-amino group of the Lysine side chain with (2-[2-(2-Amino-ethoxy)-ethoxy]-acetyl)-(gamma-Glu)-CO-(CH2) 18-CO2H; SITE 20: n
B7: Example 9 (peptide)
chain: YXQGTFTSDFSKXLDKKAQXAFIEYLLAGGPSSGEPPPGGS
modifications: Aib, αMeL; acylated Lys; C-terminal amide; synthetic construct; SITE 2: note = 2-Aminoisobutyric Acid; SITE 13: note = alpha-methyl-leucine; SITE 17: note = Lysine is chemically modified through conjugation of the epsilon-amino group of the Lysine side chain with (2-[2-(2-Amino-ethoxy)-ethoxy]-acetyl)-(gamma-Glu)-CO-(CH2) 18-CO2H; SITE 20: n
B8: Example 127 (peptide)
chain: B1 chain with E31H, S39E, E41S
modifications: synthetic construct; SITE 2: note = 2-Aminoisobutyric Acid; SITE 12: note = L-ornithine; SITE 13: note = alpha-methyl-leucine; SITE 17: note = Lysine is chemically modified through conjugation of the epsilon-amino group of the Lysine side chain with (2-[2-(2-Amino-ethoxy)-ethoxy]-acetyl)-(gamma-Glu)
B9: Example 25 (peptide)
chain: B7 chain with G39S, G40E, S41G
modifications: Aib, αMeL, acylated Lys, C-terminal amide; synthetic construct; SITE 2: note = 2-Aminoisobutyric Acid; SITE 13: note = alpha-methyl-leucine; SITE 17: note = Lysine is chemically modified through conjugation of the epsilon-amino group of the Lysine side chain with (2-[2-(2-Amino-ethoxy)-ethoxy]-acetyl)2-(gamma-Glu)-CO-(CH2 )16-CO2H; SITE 20:

Assays:
Test in all cases: cell-based or functional assay
[1] = target: hGLP-1R (Homo sapiens, UniProt P43220)
Chain of hGLP-1R (P43220 24-463): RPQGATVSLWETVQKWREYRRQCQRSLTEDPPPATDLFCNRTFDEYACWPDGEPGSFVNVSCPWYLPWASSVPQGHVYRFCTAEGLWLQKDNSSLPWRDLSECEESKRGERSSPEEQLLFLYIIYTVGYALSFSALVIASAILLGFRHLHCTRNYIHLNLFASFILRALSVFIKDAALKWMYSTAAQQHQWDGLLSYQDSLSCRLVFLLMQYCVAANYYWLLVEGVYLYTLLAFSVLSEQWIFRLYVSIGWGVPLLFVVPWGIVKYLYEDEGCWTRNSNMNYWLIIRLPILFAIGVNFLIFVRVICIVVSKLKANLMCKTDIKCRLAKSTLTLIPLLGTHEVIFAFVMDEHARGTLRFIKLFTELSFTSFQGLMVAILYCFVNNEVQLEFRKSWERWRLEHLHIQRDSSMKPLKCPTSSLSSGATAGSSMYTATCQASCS

[2] = target: T1, human GIP receptor (human)
[3] = target: human glucagon receptor (human) (UniProt P47871)
Chain of human glucagon receptor (human) (P47871 26-477): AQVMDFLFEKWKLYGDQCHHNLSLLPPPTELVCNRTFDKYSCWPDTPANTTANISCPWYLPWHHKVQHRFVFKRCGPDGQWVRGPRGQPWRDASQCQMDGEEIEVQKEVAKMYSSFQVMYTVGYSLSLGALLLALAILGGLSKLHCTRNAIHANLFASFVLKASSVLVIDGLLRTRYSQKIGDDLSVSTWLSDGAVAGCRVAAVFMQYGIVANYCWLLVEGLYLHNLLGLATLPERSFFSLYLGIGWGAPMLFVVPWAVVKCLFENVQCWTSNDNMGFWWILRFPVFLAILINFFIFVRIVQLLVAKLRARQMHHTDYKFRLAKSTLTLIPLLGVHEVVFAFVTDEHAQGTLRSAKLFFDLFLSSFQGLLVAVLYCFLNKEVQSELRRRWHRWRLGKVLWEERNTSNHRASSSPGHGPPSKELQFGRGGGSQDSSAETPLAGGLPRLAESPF

| Binder | Relative cAMP EC50 [1] [nM] | cAMP Rel EC50, nM (in the presence of 1% HSA) [1] [nM] | Relative cAMP EC50 [2] [nM] | cAMP Rel EC50, nM (in the presence of 1% HSA) [2] [nM] | Relative cAMP EC50 [3] [nM] | cAMP Rel EC50, nM (in the presence of 1% HSA) [3] [nM] | cAMP Rel EC50 (1% HSA) [1] [nM] | cAMP Rel EC50 (1% HSA) [2] [nM] | cAMP Rel EC50 (1% HSA) [3] [nM] | cAMP Rel EC50 (in the presence of 1% HSA) [1] [nM] | cAMP Rel EC50 (in the presence of 1% HSA) [2] [nM] | cAMP Rel EC50 (in the presence of 1% HSA) [3] [nM] |
| --- | --- | --- | --- | --- | --- | --- | --- | --- | --- | --- | --- | --- |
| Y[Aib]QGTFTSDFS[Dab][αMeL]LDKK([AEEA-γGlu-C18 diacid])AQ[Aib]AFIEYLLE[Aib]GPSSGAPPPSGS-NH2 (ends and bridges not checked) [Example 133] | 3.6 | 1180 | 0.15 | 23.1 | 1.64 | 642 | – | – | – | – | – | – |
| B1 | 4.82 | 1500 | 0.531 | 94.6 | 4.55 | 1740 | – | – | – | – | – | – |
| B2 | 6.14 | 801 | 0.344 | 54.7 | 2.92 | 567 | – | – | – | – | – | – |
| B3 | 3.5 | 679 | 0.307 | 24.3 | 6.76 | 1090 | – | – | – | – | – | – |
| B4 | 0.423 | – | 0.00721 | – | 1.69 | – | 44 | 0.616 | 268 | – | – | – |
| B5 | 1.17 | – | 0.0135 | – | 11.6 | – | 1.15 | 0.011 | 11.7 | – | – | – |
| B6 | 3.4 | – | 0.388 | – | 5.61 | – | – | – | – | – | – | – |
| B7 | 1.61 | – | 0.205 | – | 7.19 | – | – | – | – | 402 | 41.8 | 1430 |
| B8 | 4.8 | 1000 | 0.312 | 62.9 | 4.35 | 1010 | – | – | – | – | – | – |
| B9 | 3.34 | – | 0.128 | – | 6.8 | – | – | – | – | 520 | 19.8 | 939 |
